Measurements from patent US20220235136A1, “METHODS AND COMPOSITIONS FOR TREATING A DISEASE OR DISORDER” (YALE UNIVERSITY, priority 2019, published 2022).

Biological target: T1, CD93 (Homo sapiens, UniProt Q9NPY3)
T1 construct: expressed in transfected cells; host or cells: 293 cells (CD93+ 293)
T1 sequence (Q9NPY3 22-652): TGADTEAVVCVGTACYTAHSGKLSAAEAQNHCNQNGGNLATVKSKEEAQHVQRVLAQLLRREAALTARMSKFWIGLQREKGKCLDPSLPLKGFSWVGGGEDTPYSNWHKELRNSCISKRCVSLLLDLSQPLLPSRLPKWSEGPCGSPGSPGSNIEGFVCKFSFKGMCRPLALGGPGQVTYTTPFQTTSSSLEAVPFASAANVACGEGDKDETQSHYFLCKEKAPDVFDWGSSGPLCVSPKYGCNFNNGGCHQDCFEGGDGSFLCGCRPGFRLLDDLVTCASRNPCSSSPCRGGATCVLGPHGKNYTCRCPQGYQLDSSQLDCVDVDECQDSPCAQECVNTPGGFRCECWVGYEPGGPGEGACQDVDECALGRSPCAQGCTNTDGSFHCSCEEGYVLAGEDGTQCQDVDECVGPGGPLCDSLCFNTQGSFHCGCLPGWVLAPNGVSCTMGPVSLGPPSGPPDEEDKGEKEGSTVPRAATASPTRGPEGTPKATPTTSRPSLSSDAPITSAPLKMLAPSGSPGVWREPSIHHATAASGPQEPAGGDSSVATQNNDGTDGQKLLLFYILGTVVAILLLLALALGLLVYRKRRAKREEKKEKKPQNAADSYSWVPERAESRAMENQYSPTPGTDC
Assay: binding of Ig fusion proteins to CD93 transfectant (flow cytometry)
Details: flow cytometry
Excerpt: FIGS. 10A-10B show identification of the binding domain on IGFBP7 for CD93. Each extracellular domain for IGFBP7, including insulin binding (IB). Kazal, and Ig, was swapped with the corresponding domain on IGFBPL1 using PCR cloning and fused to a C-terminal Ig. These chimeric mutants were transiently expressed in HEK293T cells and supernatants were used to stain CD93 transfectant. FIG. 10A depicts whether multiple chimeric IGFBP7 mutants bind to CD93. FIG. 10B depicts various human genes containing IB-domain constructed onto an expression vector containing Fc-Tag. Constructs were transiently transduced into HEK293T cells to produce Fc tagged fusion proteins in the supernatant. Supernatant was used to stain CD93 transfectant by flow cytometry. Binding index represents the ratio of binding MFI of CD93 transfectant to control cells.
The IGFBP7-IGFBPL1 chimeras were generated by two-step PCR. […]
Cell surface and intercellular staining and analysis by flow cytometry were followed the protocol previously described (71). Dead cells were excluded with SYTOX® (Blue Dead Cell Stain Kit (Thermo Fisher Scientific). Flow cytometric analysis was conducted with a BD FACS Calibur or a BD LSRFortessa™ cell analyzer (BD Bioscience, Franklin Lakes, N.J. USA), and then data were analyzed by FlowJo software (Tree Star Inc.)

B1: IGFBPL1: a IGFBP-related protein that does not bind CD93 (protein, UniProt Q8WX77 26-278, looked up)
Insulin-like growth …: LGIRDVGGRRPKCGPCRPEGCPAPAPCPAPGISALDECGCCARCLGAEGASCGGRAGGRCGPGLVCASQAAGAAPEGTGLCVCAQRGTVCGSDGRSYPSVCALRLRARHTPRAHPGHLHKARDGPCEFAPVVVVPPRSVHNVTGAQVGLSCEVRAVPTPVITWRKVTKSPEGTQALEELPGDHVNIAVQVRGGPSDHEATAWILINPLRKEDEGVYQCHAANMVGEAESHSTVTVLDLSKYRSFHFPAPDDRM
  binding to CD93 293 cells / CD93 transfectant: does not bind
